These results are taken from patent US20210122788A1 (published 2021).

What all share (assay): FACS binding to EL4 cells
(In general: In flow cytometry, cells or beads pass a laser one at a time.)

In assay [1] the target is T1, human BTLA, wild-type, on cells (human, UniProt Q7Z6A9 31-289).
For assay [2], the target named is T2, human CD160 on cells (human, UniProt O95971 25-159).
T2 chain: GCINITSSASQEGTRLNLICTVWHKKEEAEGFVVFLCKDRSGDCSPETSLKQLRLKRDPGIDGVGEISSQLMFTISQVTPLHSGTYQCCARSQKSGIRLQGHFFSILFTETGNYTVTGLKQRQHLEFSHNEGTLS

The target of assay [3] is T1, human BTLA, wild-type, on cells. This is another data set of the same source.
Assay [4] addresses T2, human CD160 on cells.

Like-named read-outs stand apart in the source and are kept apart here.

B1: human HVEM Fc (Fc fusion)
chain: LPSCKEDEYPVGSECCPKCSPGYRVKEACGELTGTVCEPCPPGTYIAHLNGLSKCLQCQMCDPAMGLRASRNCSRTENAVCGCSPGHFCIVQDGDHCAACRAYATSSPGQRVQKGGTESQDTLCQNCPPGTFSPNGTLEECQHQTKCSWLVTKAGAGTSSSHWV
The EC50 is the concentration giving half of the maximal effect. Low values mean higher potency in that assay, high ones lower potency in that assay. As for B1, the EC50 came to 8.7 µg/mL in assay [1], 5.1 µg/mL with human CD160 on cells [2], 8.7 µg/mL in assay [3] and 5.1 µg/mL with human CD160 on cells [4].
